Source: publication PMC6821609

T1: HNF4α (hepatocyte nuclear factor 4α) (Homo sapiens, UniProt P41235 1-474)
T1 sequence: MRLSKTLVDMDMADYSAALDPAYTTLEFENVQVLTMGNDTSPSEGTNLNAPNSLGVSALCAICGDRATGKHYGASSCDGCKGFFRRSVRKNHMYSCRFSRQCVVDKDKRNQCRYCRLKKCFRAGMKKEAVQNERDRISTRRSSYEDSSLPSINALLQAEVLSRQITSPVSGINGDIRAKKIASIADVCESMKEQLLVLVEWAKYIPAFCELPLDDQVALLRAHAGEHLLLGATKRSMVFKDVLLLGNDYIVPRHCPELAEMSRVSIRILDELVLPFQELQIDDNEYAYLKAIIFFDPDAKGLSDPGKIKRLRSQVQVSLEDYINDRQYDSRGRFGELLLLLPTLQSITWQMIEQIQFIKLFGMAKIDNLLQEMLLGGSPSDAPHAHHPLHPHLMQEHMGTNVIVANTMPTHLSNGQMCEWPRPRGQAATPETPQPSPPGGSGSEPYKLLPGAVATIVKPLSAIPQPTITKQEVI

B1: F9-wt (cfa_F9n_wt_Biotin) (dsDNA)
DNA 1: CAGAAGTAAATACAGCTCAACTTGTACTTTGGAACAACTGGTCAACC
DNA 2: GGTTGACCAGTTGTTCCAAAGTACAAGTTGAGCTGTATTTACTTCTG
B2: F9-mut (cfa_F9n_mut_Biotin) (dsDNA)
DNA 1: CCAGAAGTAAATACAGCTCAACTTGTATTTGGAACAACTGGTCAACC
DNA 2: GGTTGACCAGTTGTTCCAAATACAAGTTGAGCTGTATTTACTTCTGG

Target: T1, HNF4α (hepatocyte nuclear factor 4α)
Assay: EMSA

Binder | binding result
B1 | binds
B2 | no binding
